The target of test [1] is T1, misfolded/unfolded Wil λ light chain (human).
T1 construct: mature; Soluble misfolded form made from native Wil; Biotinylated in the capture ELISA; also called misfolded Wil; Wil (misfolded)
Nature of the test: microscale thermophoresis, labeled antibody. The procedure: (§1) FIGS. 7A and 7B are line graphs illustrating the results of binding of misfolded (FIG. 7A) or amyloid (FIG. 7B) Wil to muLX-97 measured by MST (microscale thermophoresis).
(§2) Next, the binding affinity of muLX-97 to amyloid forms of λ light chains was determined. A true affinity to aggregates could not be measured using previously described methods where either the antibody or target is immobilized, so microscale thermophoresis (MST) was used. In this method a small spot in a capillary containing fluorescently labeled antibody in the presence or absence of target is irradiated with an infrared laser. The local heating causes migration of protein out of the heated spot and the rate of migration change (due to the antibody binding to a ligand) can be used to measure the affinity. Using the NanoTemper Monolith, binding of muLX-97 to misfolded and amyloid forms of Wil was quantified, with results shown in FIG. 7.

Test [2] has as its target T1, misfolded/unfolded Wil λ light chain. Nature of the test: microscale thermophoresis, labeled antibody. The procedure: as §1, §2
This is another data set of the same source. (MST reads how a fluorescent partner responds to local heating, with and without ligand.)

Test [3] addresses T2, aggregated/amyloid Wil λ light chain (human).
T2 construct: mature; Aggregate of many chains; Conjugated to pHrodo in the phagocytosis assay; also called Wil amyloid; amyloid/aggregated Wil
The experiment in a line: microscale thermophoresis, labeled antibody. As for the experimental part:
as §1, §2

In test [4] the target is T1, misfolded/unfolded Wil λ light chain. Nature of the test: bio-layer interferometry. The procedure:
(§3) FIGS. 6A-6F are bio-layer interferometry sensorgrams of binding interactions between clone 1 (muLX-97) to misfolded (FIGS. 6A, 6B, 6C) and native (FIGS. 6D, 6E, 6F) conformations of Wil (FIGS. 6A, 6D), H3 (FIGS. 6B, 6E), and FOR102 (FIGS. 6C, 6F) lambda light chain variants. Binding of muLX-97 with its misfolded Wil at a range of target concentrations was measured by changes in wavelength (nm) over 720 seconds (120 s association, 600 s dissociation). Association and dissociation curves were fit using Octet Systems Software to determine KD.
(§4) The binding affinity of muLX-97 to multiple λ light chain variants in misfolded and native conformations was then measured. In addition to Wil, two light chain variants sequenced from cardiac amyloid deposits in light chain amyloidosis patients were selected. See Oberti L et al. Concurrent structural and biophysical traits link with immunoglobulin light chains amyloid propensity. Sci Rep. 2017 Dec. 1; 7(1):16809 and Baur J et al. Identification of AL proteins from 10λ-AL amyloidosis patients by mass spectrometry extracted from abdominal fat and heart tissue. Amyloid. 2023 March; 30(1) 27-37. […] In native conformations of all variants, only weak binding (limited BLI signal, at very high concentration of 1000 nM) was observed. This limited association may be due to the presence of small amounts of misfolded Wil contaminating the ‘native’ sample.
Background: Biolayer interferometry detects binding as a change in optical thickness at a sensor tip.

Test [5] concerns the target T3, misfolded FOR102 λ light chain (human).
T3 construct: also called FOR102 (misfolded)
The experiment in a line: bio-layer interferometry. As for the experimental part:
as §3, §4

The target in test [6] is T4, misfolded H3 λ light chain (human).
T4 construct: also called H3 (misfolded)
Nature of the test: bio-layer interferometry. The procedure: as §3, §4

Test [7] addresses T1, misfolded/unfolded Wil λ light chain. Nature of the test: capture ELISA, antibody captured by anti-mouse Fc, biotinylated Wil in solution. The source says: All the candidate mAbs detected both misfolded/unfolded and amyloid/aggregated Wil. […] It was suspected that the Western blotting and indirect ELISA methods, which immobilizes the ‘native’ Wil protein to a surface, can lead to false-positive binding to the native protein by inducing some degree of misfolding, which would not be detected by the clones that bound weakly (clones 3-5). As such, a capture format ELISA was used to interrogate the binding behavior of clones 1 and 2. In this format, a goat anti-mouse Fc capture antibody was coated into the ELISA wells, and clones 1 or 2 are captured by the antibody with their Fabs aligned to the appropriate orientation. Then, native, or misfolded forms of biotinylated Wil is added to these wells and binding is measured by streptavidin. […] Based on the above data, clone 1 was selected as the lead candidate for subsequent characterization (henceforth referred to as muLX-97).
(ELISA stands for enzyme-linked immunosorbent assay.)

Test [8] addresses T2, aggregated/amyloid Wil λ light chain. Nature of the test: cell-based or functional assay.
The target in test [9] is T5, islet amyloid polypeptide (IAPP) amyloid in pancreatic tissue (human, UniProt P10997 34-70).
T5 construct: Pathological control tissue in immunohistochemistry; also called IAPP amyloid pancreatic tissue
T5 chain (looked up): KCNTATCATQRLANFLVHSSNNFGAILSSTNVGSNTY
The experiment in a line: immunohistochemistry on patient tissue.

Test [10] concerns the target transthyretin (ATTR) amyloid in cardiac tissue (human, UniProt P02766 21-147). Nature of the test: immunohistochemistry on patient tissue.

B1: muLX-97 (clone 1) (antibody, V domains shown)
VH: DVKLVESGGGLVKLGGSLKLSCAASGFTFSSYYMSWVRQTPEKRLELVAAINSNGGNTYYPDTVKGRFTISRDNAKNTLYLQMSSLKSEDTALYYCARLPFDYWGQGTTLTVSS
VL: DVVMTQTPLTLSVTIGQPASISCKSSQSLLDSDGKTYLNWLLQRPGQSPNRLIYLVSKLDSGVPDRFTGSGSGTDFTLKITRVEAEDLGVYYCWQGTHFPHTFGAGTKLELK
modifications: Antibody fluorescently labeled in the MST assay; dye and site not stated.
notes: Murine monoclonal antibody from a hybridoma, purified from mouse ascites fluid; Fluorescently labeled in the MST assay
For the molecule B1, the Kd in test [1] is 61.9 nM; in test [2] it was 61 nM; in test [3], 87 nM; in [4] it was 59 nM; in [5], 65 nM; in test [6] it was 317 nM. Further, the affinity in test [7], expressed as Kd, was 69 nM. Also, in test [8], the “EC50 of phagocytic uptake of pHrodo-labeled amyloid Wil (% pHrodo-positive cells), J774.1 cells” value is approximately 7 nM. In test [8], the “EC50 of phagocytic uptake of pHrodo-labeled amyloid Wil (% pHrodo-positive cells), RAW 264.7 cells” value is approximately 20 nM. The binding result in test [9] and in test [10] was “no binding” each time.

What is called Kd is the concentration at which binding is half-saturated. Read a low Kd as tighter binding.

For the origin of these results see patent US20250326864A1 (PARADOX IMMUNOTHERAPEUTICS, published 2025).
